Data as given in patent US12697371B2, “Method for preventing, treating or delaying myocardial damage using neuregulin and composition” (ZENSUN (SHANGHAI) SCIENCE & TECHNOLOGY, CO., LTD., priority 2019, dated 2026).
Where “and” joins values, the source holds several entries; their conditions need not be identical. Equal entries are not always repeated.

Tested on: rats with acute myocardial infarction caused by left coronary artery ligation
Experiment: Echocardiography, rat acute myocardial infarction, long-term subcutaneous NRG followed by withdrawal through dose reduction (Example 4)
Type: in vivo, Wistar rats
Protocol: Established in the same way as the rat model of heart failure caused by coronary artery ligation in 5.1, Embodiment 1
The rats were randomly divided into groups and medicated upon coronary artery ligation. According to post-ligation survival, the rats were randomly divided into 2 groups by body weight. Subcutaneous injection was given 3 times a day, and the animals were weighed once a day. The animals were medicated by weight. Echocardiography was performed on day 10 after modeling. All the animals underwent echocardiography every 10 days, underwent echocardiography every week after dose reduction, and underwent echocardiography every 2 weeks after complete withdrawal. All the animals were medicated continuously till day 60, and then a three-week dose-reduction withdrawal plan was implemented: The administered dose was reduced to 15 μg/kg, 7.5 μg/kg and 3.75 μg/kg in the first, second and third week, respectively. The drug was completely withdrawn after three-week dose reduction to observe the clinical symptoms.
After being anesthetized with 4% isoflurane, the rats were fixed onto the operating board in the left lateral recumbent position. The head of the rats was fixed in the breathing mask of the gaseous anesthesia machine, with isoflurane used for maintenance of anesthesia. After chest hair removal, the skin was disinfected with 75% alcohol and coated with a coupling agent. An echocardiography probe was used to detect any echo signal from the left ventricle of the rats. The left ventricular end-diastolic diameter and left ventricular end-systolic diameter (D) were measured. The left ventricular end-diastolic volume (EDV) and end-systolic volume (ESV) were calculated. The ejection fraction (EF) value was found, EP=(EDV−ESV)/EDV*100%.
All experimental data were expressed in ±SD. GraphPad Prism6 was used for one-way ANOVA analysis. P<0.05 indicates a significant inter-group difference; P<0.01 indicates an extremely significant inter-group difference.

[1] = DAY 10, 30 μg/kg/Day sc, 3 times a day, continuous
[2] = DAY 30, 30 μg/kg/Day sc, 3 times a day, continuous
[3] = DAY 50, 30 μg/kg/Day sc, 3 times a day, continuous
[4] = DAY 60, 30 μg/kg/Day sc, 3 times a day, continuous
[5] = DAY 81, 30 μg/kg/Day sc × 60 days, then three weeks of dose reduction (15, 7.5, 3.75 μg/kg)
[6] = DAY 88, after complete withdrawal on day 81 (30 μg/kg/Day sc × 60 days + 3-week dose reduction)
[7] = DAY 102, after complete withdrawal on day 81 (30 μg/kg/Day sc × 60 days + 3-week dose reduction)
[8] = DAY 116, after complete withdrawal on day 81 (30 μg/kg/Day sc × 60 days + 3-week dose reduction)
[9] = DAY 143 (ninth week after withdrawal), after complete withdrawal on day 81

B1: NRG: fragment of the NRG-1β2 isomer, 177-237 amino acid fragment containing an EGF-like domain (SEQ ID NO: 1); developed by Zensun (protein, listed as Homo sapiens)
chain: SHLVKCAEKEKTFCVNGGECFMVKDLSNPSRYLCKCPNEFTGDRCQNYVMASFYKAEELYQ
**Q.** Which “LVEDd and LVEDs compared with the control group” value (30 μg/kg/Day sc, 60 consecutive days) does the source give for B1 here?
**A.** significantly reduced

**Q.** What about the “EF value compared with the control group” value (30 μg/kg/Day sc, after 60 days of continuous administration) of the same molecule?
**A.** increased significantly

**Q.** And the EF [1]?
**A.** 50.5 ± 4.96 %

**Q.** And the LVEDd [1]?
**A.** 0.821 ± 0.05 cm

**Q.** And the LVEDs [1]?
**A.** 0.637 ± 0.06 cm

**Q.** And the EF [2]?
**A.** 46.8 ± 6.37 %

**Q.** And the LVEDd [2]?
**A.** 0.912 ± 0.06 cm

**Q.** And the LVEDs [2]?
**A.** 0.725 ± 0.07 cm

**Q.** What about the EF [3] of the same molecule?
**A.** 44.4 ± 7.85 %

**Q.** What about the LVEDd [3] of the same molecule?
**A.** 0.934 ± 0.07 cm

**Q.** And the LVEDs [3]?
**A.** 0.754 ± 0.09 cm

**Q.** And the EF [4]?
**A.** 43.8±8.0% and 43.8 ± 8.04 %

**Q.** What about the LVEDd [4] of the same molecule?
**A.** 0.981±0.08 cm

**Q.** And the LVEDs [4]?
**A.** 0.794±0.08 cm

**Q.** What about the EF [5] of the same molecule?
**A.** 42.3±11.2%

**Q.** What about the LVEDd [5] of the same molecule?
**A.** 0.981±0.08 cm and 0.981 ± 0.07 cm

**Q.** What about the LVEDs [5] of the same molecule?
**A.** 0.799±0.08 cm

**Q.** And the EF [6]?
**A.** 39.3±12.7% and 39.3 ± 12.71 %

**Q.** And the LVEDd [6]?
**A.** 0.994±0.08 cm

**Q.** What about the LVEDs [6] of the same molecule?
**A.** 0.826±0.10 cm

**Q.** And the EF [7]?
**A.** 36.6 ± 7.69 %

**Q.** And the LVEDd [7]?
**A.** 1.031 ± 0.07 cm

**Q.** And the LVEDs [7]?
**A.** 0.872 ± 0.08 cm

**Q.** What about the EF [8] of the same molecule?
**A.** 33.3 ± 5.12 %

**Q.** And the LVEDd [8]?
**A.** 1.054 ± 0.07 cm

**Q.** What about the LVEDs [8] of the same molecule?
**A.** 0.908 ± 0.08 cm

**Q.** And the EF [9]?
**A.** 33.4±7.6%

**Q.** What about the LVEDd [9] of the same molecule?
**A.** 1.104±0.08 cm

**Q.** And the LVEDs [9]?
**A.** 0.950±0.09 cm

**Q.** What about the “Cardiac function, overall conclusion” value (a long time after withdrawal) of the same molecule?
**A.** significant improving effect on the cardiac function

**Q.** And the “EF value compared with the control group” value (nine weeks after withdrawal)?
**A.** still showed a rising trend

**Q.** What about the “LVEDd and LVEDs compared with the control group” value (nine weeks after withdrawal) of the same molecule?
**A.** there remained a significant difference
